# Measured values: patent US20230193255
# What was measured:
# [1] = target: TEV cleavage site ENLYFQS
# [2] = target: Variant TEV cleavage site ENLFFQS
# [3] = target: Variant TEV cleavage site ENVYFQS
protein,measurement,setting,value
TEV protease S219V mutant (protein) ESLFKGPRDYNPISSTICHLTNESDGHTTSLYGIGFGPFIITNKHLFRRNNGTLLVQSLHGVFKVKNTTTLQQHLIDGRDMIIIRMPKDFPPFPQKLKFREPQREERICLVTTNFQTKSMSSMVSDTSCTFPSSDGIFWKHWIQTKDGQCGSPLVSTRDGFIVGIHSASNFTNTNNYFTSVPKNFMELLTNQEAQQWVSGWRLNADSVLWGGHKVFMVKPEEPFQPVKEATQLMN,efficiency of cleavage by TEV at the TCS,[1],considered to be 100% efficient
same,efficiency of cleavage by TEV at the TCS,[2],found to exhibit 10% efficiency
same,efficiency of cleavage by TEV at the TCS,[3],found to exhibit 1% efficiency
